The assay addresses PI3K p85 SH2 domains. In words: SPR (BIAcore 3000), PI3K p85 SH2 domains. The format is binding. The following applies: HBS pH 7.4, 37°C, n = 3. The protocol:
Experiments were conducted on a BIAcore™ 3000 in HBS buffer (0.01 M HEPES, pH 7.4, containing 0.15 M NaCl, 3 mM EDTA, and 0.005% v/v P-20, GE Life Sciences, Amersham, UK). Streptavidin was coupled to a research grade CM5 chip (GE Life Sciences, Amersham, UK) as previously described, [13]. Protein-peptide interactions were carried out a rate of 10 µl/min at a constant temperature of 37°C to more accurately reflect physiological conditions. Biotinylated peptides were bound to the streptavidin-coated CM5 chips at 37°C to between 25–50 RU [14]. Purified monomeric SH2 domains were passed over the immobilised peptides at a range of concentrations. Anti-phosphotyrosine monoclonal antibody (Sigma, Poole, U.K.) was passed over the chip to saturation at the end of each experiment to verify peptide coverage on the chip. Binding affinities for the single ITIM/ITSM peptides were determined by plotting equilibrium binding measurements (RU) against SH2 domain protein concentration (Origin 8, OriginLab, MA, USA). KD was defined as the concentration of SH2 protein that gave half maximal binding to the peptide. For the 60-mer peptides, SH2 domains were passed over the chip surface at 50 µl/min. KD was determined as Koff/Kon, which were determined using both GraphPad Prism 5.0 (GraphPad, La Jolla, CA, USA) and BIAevaluation Software (GE Life Sciences, Amersham,UK). […]

B1: G6B-b: inhibitory platelet receptor; affinities measured with its dual phosphopeptide (protein, UniProt O95866 18-241, looked up)
Megakaryocyte and platelet …: NPGASLDGRPGDRVNLSCGGVSHPIRWVWAPSFPACKGLSKGRRPILWASSSGTPTVPPLQPFVGRLRSLDSGIRRLELLLSAGDSGTFFCKGRHEDESRTVLHVLGDRTYCKAPGPTHGSVYPQLLIPLLGAGLVLGLGALGLVWWLHRRLPPQPIRPLPRFAPLVKTEPQRPVKEEEPKIPGDLDQEPSLLYADLDHLALSRPRRLSTADPADASTIYAVVV
As to B1, the Kd was around 1000 nM.
